Data: publication PMC12416549 (2024)

T1: TNFR1 (Homo sapiens, UniProt P19438)
T1 chain: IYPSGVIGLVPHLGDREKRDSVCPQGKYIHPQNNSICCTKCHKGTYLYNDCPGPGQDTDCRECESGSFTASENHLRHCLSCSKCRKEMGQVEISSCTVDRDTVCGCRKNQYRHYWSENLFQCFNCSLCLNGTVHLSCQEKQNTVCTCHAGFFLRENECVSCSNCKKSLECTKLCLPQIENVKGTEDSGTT


Target: T1, TNFR1
Experiment: yeast display SC50

Binder	apparent Kd (screen)
E7F (designed binder) SMEEEVFKAAKEYEKKKKEAIEKHLEKLKAKDKEAAERFLKELEEAAKEYAKDEAKTMSEEEAKRRAKKYKEKVLLSELSEEEQKEIKEAEEKLVRTILKYVEEAAK	20.2 nM
T97Q (designed binder) SMEEEVEKAAKEYEKKKKEAIEKHLEKLKAKDKEAAERFLKELEEAAKEYAKDEAKTMSEEEAKRRAKKYKEKVLLSELSEEEQKEIKEAEEKLVRQILKYVEEAAK	0.446 nM
E7T (designed binder) SMEEEVTKAAKEYEKKKKEAIEKHLEKLKAKDKEAAERFLKELEEAAKEYAKDEAKTMSEEEAKRRAKKYKEKVLLSELSEEEQKEIKEAEEKLVRTILKYVEEAAK	2.73 nM
L75D (designed binder) SMEEEVEKAAKEYEKKKKEAIEKHLEKLKAKDKEAAERFLKELEEAAKEYAKDEAKTMSEEEAKRRAKKYKEKVDLSELSEEEQKEIKEAEEKLVRTILKYVEEAAK	5.84 nM
A63W (designed binder) SMEEEVEKAAKEYEKKKKEAIEKHLEKLKAKDKEAAERFLKELEEAAKEYAKDEAKTMSEEEWKRRAKKYKEKVLLSELSEEEQKEIKEAEEKLVRTILKYVEEAAK	1.54 nM
K64S (designed binder) SMEEEVEKAAKEYEKKKKEAIEKHLEKLKAKDKEAAERFLKELEEAAKEYAKDEAKTMSEEEASRRAKKYKEKVLLSELSEEEQKEIKEAEEKLVRTILKYVEEAAK	0.718 nM
E104W (designed binder) SMEEEVEKAAKEYEKKKKEAIEKHLEKLKAKDKEAAERFLKELEEAAKEYAKDEAKTMSEEEAKRRAKKYKEKVLLSELSEEEQKEIKEAEEKLVRTILKYVEWAAK	0.869 nM
F39D (designed binder) SMEEEVEKAAKEYEKKKKEAIEKHLEKLKAKDKEAAERDLKELEEAAKEYAKDEAKTMSEEEAKRRAKKYKEKVLLSELSEEEQKEIKEAEEKLVRTILKYVEEAAK	7.07 nM
A55M (designed binder) SMEEEVEKAAKEYEKKKKEAIEKHLEKLKAKDKEAAERFLKELEEAAKEYAKDEMKTMSEEEAKRRAKKYKEKVLLSELSEEEQKEIKEAEEKLVRTILKYVEEAAK	0.446 nM
E61M (designed binder) SMEEEVEKAAKEYEKKKKEAIEKHLEKLKAKDKEAAERFLKELEEAAKEYAKDEAKTMSEMEAKRRAKKYKEKVLLSELSEEEQKEIKEAEEKLVRTILKYVEEAAK	1.27 nM
K69P (designed binder) SMEEEVEKAAKEYEKKKKEAIEKHLEKLKAKDKEAAERFLKELEEAAKEYAKDEAKTMSEEEAKRRAKPYKEKVLLSELSEEEQKEIKEAEEKLVRTILKYVEEAAK	22.2 nM
F39W (designed binder) SMEEEVEKAAKEYEKKKKEAIEKHLEKLKAKDKEAAERWLKELEEAAKEYAKDEAKTMSEEEAKRRAKKYKEKVLLSELSEEEQKEIKEAEEKLVRTILKYVEEAAK	1.05 nM
L40Q (designed binder) SMEEEVEKAAKEYEKKKKEAIEKHLEKLKAKDKEAAERFQKELEEAAKEYAKDEAKTMSEEEAKRRAKKYKEKVLLSELSEEEQKEIKEAEEKLVRTILKYVEEAAK	0.49 nM
L76I (designed binder) SMEEEVEKAAKEYEKKKKEAIEKHLEKLKAKDKEAAERFLKELEEAAKEYAKDEAKTMSEEEAKRRAKKYKEKVLISELSEEEQKEIKEAEEKLVRTILKYVEEAAK	1.16 nM
K71R (designed binder) SMEEEVEKAAKEYEKKKKEAIEKHLEKLKAKDKEAAERFLKELEEAAKEYAKDEAKTMSEEEAKRRAKKYREKVLLSELSEEEQKEIKEAEEKLVRTILKYVEEAAK	0.593 nM
E49L (designed binder) SMEEEVEKAAKEYEKKKKEAIEKHLEKLKAKDKEAAERFLKELEEAAKLYAKDEAKTMSEEEAKRRAKKYKEKVLLSELSEEEQKEIKEAEEKLVRTILKYVEEAAK	10.4 nM
K48E (designed binder) SMEEEVEKAAKEYEKKKKEAIEKHLEKLKAKDKEAAERFLKELEEAAEEYAKDEAKTMSEEEAKRRAKKYKEKVLLSELSEEEQKEIKEAEEKLVRTILKYVEEAAK	0.446 nM
E103Y (designed binder) SMEEEVEKAAKEYEKKKKEAIEKHLEKLKAKDKEAAERFLKELEEAAKEYAKDEAKTMSEEEAKRRAKKYKEKVLLSELSEEEQKEIKEAEEKLVRTILKYVYEAAK	1.86 nM
E3K (designed binder) SMKEEVEKAAKEYEKKKKEAIEKHLEKLKAKDKEAAERFLKELEEAAKEYAKDEAKTMSEEEAKRRAKKYKEKVLLSELSEEEQKEIKEAEEKLVRTILKYVEEAAK	0.653 nM
L28V (designed binder) SMEEEVEKAAKEYEKKKKEAIEKHLEKVKAKDKEAAERFLKELEEAAKEYAKDEAKTMSEEEAKRRAKKYKEKVLLSELSEEEQKEIKEAEEKLVRTILKYVEEAAK	0.79 nM
R96N (designed binder) SMEEEVEKAAKEYEKKKKEAIEKHLEKLKAKDKEAAERFLKELEEAAKEYAKDEAKTMSEEEAKRRAKKYKEKVLLSELSEEEQKEIKEAEEKLVNTILKYVEEAAK	3 nM
H24L (designed binder) SMEEEVEKAAKEYEKKKKEAIEKLLEKLKAKDKEAAERFLKELEEAAKEYAKDEAKTMSEEEAKRRAKKYKEKVLLSELSEEEQKEIKEAEEKLVRTILKYVEEAAK	0.539 nM
E86P (designed binder) SMEEEVEKAAKEYEKKKKEAIEKHLEKLKAKDKEAAERFLKELEEAAKEYAKDEAKTMSEEEAKRRAKKYKEKVLLSELSEEEQKPIKEAEEKLVRTILKYVEEAAK	12.5 nM
I87L (designed binder) SMEEEVEKAAKEYEKKKKEAIEKHLEKLKAKDKEAAERFLKELEEAAKEYAKDEAKTMSEEEAKRRAKKYKEKVLLSELSEEEQKELKEAEEKLVRTILKYVEEAAK	2.25 nM
E54S (designed binder) SMEEEVEKAAKEYEKKKKEAIEKHLEKLKAKDKEAAERFLKELEEAAKEYAKDSAKTMSEEEAKRRAKKYKEKVLLSELSEEEQKEIKEAEEKLVRTILKYVEEAAK	6.43 nM
L40D (designed binder) SMEEEVEKAAKEYEKKKKEAIEKHLEKLKAKDKEAAERFDKELEEAAKEYAKDEAKTMSEEEAKRRAKKYKEKVLLSELSEEEQKEIKEAEEKLVRTILKYVEEAAK	1.4 nM
